Reference: patent US20160145334A1 (AbbVie / Abbott, published 2016)

T1: recombinant Rat MAG/Fc Chimera (R&D Systems, Catalog #538-MG) (rat, UniProt P07722 20-516)
T1 construct: Bought; labeled with horseradish peroxidase by the Zenon human IgG labeling kit in the assay; Fc part of the bought chimera not given; not described
T1 sequence (looked up): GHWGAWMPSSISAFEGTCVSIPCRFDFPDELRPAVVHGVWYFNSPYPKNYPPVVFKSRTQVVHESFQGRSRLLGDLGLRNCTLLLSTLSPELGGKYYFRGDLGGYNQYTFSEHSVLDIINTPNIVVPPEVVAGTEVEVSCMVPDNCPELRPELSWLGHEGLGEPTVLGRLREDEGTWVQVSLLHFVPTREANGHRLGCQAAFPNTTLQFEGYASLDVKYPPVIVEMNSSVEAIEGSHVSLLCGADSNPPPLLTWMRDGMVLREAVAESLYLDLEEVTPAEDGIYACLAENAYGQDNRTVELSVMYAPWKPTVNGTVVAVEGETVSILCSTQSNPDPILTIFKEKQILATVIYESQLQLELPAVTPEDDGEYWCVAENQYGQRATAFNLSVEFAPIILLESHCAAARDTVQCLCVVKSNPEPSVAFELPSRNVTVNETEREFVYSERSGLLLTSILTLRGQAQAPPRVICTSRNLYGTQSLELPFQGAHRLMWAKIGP

T2: human NgR, full length, on cells (human, UniProt Q9BZR6 27-447)
T2 construct: whole, on cells; also called HEK293 NGR; human NgR expressed on HEK293f cells
T2 sequence (looked up): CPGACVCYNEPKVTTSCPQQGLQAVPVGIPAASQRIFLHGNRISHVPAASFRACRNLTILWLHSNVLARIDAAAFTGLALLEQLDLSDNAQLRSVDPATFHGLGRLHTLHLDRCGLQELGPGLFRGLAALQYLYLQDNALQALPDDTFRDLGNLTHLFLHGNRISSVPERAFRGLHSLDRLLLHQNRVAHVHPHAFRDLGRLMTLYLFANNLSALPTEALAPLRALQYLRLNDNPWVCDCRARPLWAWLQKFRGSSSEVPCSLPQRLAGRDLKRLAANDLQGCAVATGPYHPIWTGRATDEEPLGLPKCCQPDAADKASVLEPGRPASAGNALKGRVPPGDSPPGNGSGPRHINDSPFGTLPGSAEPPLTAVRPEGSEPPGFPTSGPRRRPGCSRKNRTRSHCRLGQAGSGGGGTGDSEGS

T3: rat NgR, full length, on cells (rat, UniProt Q99M75 27-447)
T3 construct: whole, on cells; also called CHO K1 Rat NGR; rat NgR expressed on HEK293f cells
T3 sequence (looked up): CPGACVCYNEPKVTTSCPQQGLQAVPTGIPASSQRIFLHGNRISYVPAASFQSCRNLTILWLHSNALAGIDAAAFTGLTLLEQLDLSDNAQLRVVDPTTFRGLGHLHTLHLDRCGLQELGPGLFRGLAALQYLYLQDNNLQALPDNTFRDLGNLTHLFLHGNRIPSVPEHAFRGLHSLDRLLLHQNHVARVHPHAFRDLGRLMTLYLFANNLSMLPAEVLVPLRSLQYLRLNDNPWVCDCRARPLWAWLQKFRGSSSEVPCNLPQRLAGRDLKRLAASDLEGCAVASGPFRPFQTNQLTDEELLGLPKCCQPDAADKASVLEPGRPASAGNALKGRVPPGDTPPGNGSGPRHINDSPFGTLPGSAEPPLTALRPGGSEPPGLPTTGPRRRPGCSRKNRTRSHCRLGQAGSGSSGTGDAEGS


Assays:
[1] = target: T1, recombinant Rat MAG/Fc Chimera (R&D …); test: competition ELISA, human NgR-Fc coated 0.2 µg/well, HRP-labelled MAG-Fc at 50 ng/ml, competitor unlabelled MAG-Fc
Experimental: To further characterize the monoclonal antibodies a competition assay similar to the binding assay of Example 2 was used to test the ability of two mAbs produced in Example 1 to inhibit MAG-Fc binding to human NgR-Fc. We immobilized NgR-Fc (0.2 μg/well, R&D Systems) on 96-well microtiter plates (Nunc Maxisorb) in 50 mM Na-carbonate buffer pH 9 over night at 4° C. followed by a 2 h blocking step with 2% BSA in Tris-HCL, pH 7.2 at room temperature. MAG-Fc (R&D Systems recombinant Rat MAG/Fc Chimera, Catalog #538-MG) was labeled with horseradish peroxidase by the Zenon human IgG labeling kit (Molecular Probes). The wells received a constant concentration of labeled MAG-Fc (final concentration 50 ng/ml in Tris-HCL, pH 7.2 with 0.1% BSA) and the indicated concentrations of mAb 50 and mAb 51. This was incubated for 60 min at room temperature and using unlabeled MAG-Fc and NgR-Fc as controls. During each incubation step plates were washed with washing buffer (10 mM Tris-HCl, pH 7.2 and 0.05% Tween 20). Labeled MAG-Fc was developed using 3,3′,5,5′-tetramethylbenzidine substrate (TMB, Pierce) under standard conditions. […] MAG-Fc and NgR-Fc competed for the binding of labeled MAG-Fc (closed circles) to human NgR-Fc (a fusion protein comprising amino acids Met 1 to Ser 447 of the human NgR and a human Fc fragment (R&D Systems); closed squares). […]

[2] = target: T2, human NgR, full length, on cells; test: FACS on HEK293f cells with human NgR, AP-Nogo66 40 nM, Alexa Fluor-labelled anti-alkaline phosphatase antibody
Experimental: (§1) To further characterize the binding and competitive properties of mAbs produced as described in Example 1, a suspension of HEK293f cells transiently expressing human or rat NgR was used. 48 h after transfection the cells were plated in 96-well microtiter plates (Nunc Maxisorb) and washed with Phosphate buffered saline buffer (PBS containing 1% BSA). 1 μg/200 μl of AP-Nogo66 (final concentration 40 nM) and varying concentrations of monoclonal antibodies (20 μg, 4, 0.8 and 0.16 μg/200 μl) were added and incubated for 1 h at 4° C. A monoclonal antibody with the same isotype was used as a negative control. The binding of AP-Nogo66 was detected with an anti-alkaline Phosphatase antibody (Sigma), which was labeled with Alexa Fluor using the Zenon mouse IgG2a labeling kit (Invitrogen). The secondary antibody was incubated for 1 h at 4° C. At the end of the incubation, the cells were washed with PBS and subjected to FACS analysis. At the 20 μg/200 μl concentration (20 fold molar excess) polyclonal anti-NgR antibody and the NgR-Fc (both from R&D Systems) blocked the AP-Nogo66 binding between 60% and 70%, while mAb 50 and 51 blocked the AP-Nogo66 binding by approximately 90%. […] The AP-Nogo66 fluorescence is shifted to lower intensities (shaded; green area) in the presence of both antibodies in HEK293f cells expressing human and rat NgR.

[3] = target: T3, rat NgR, full length, on cells; test: FACS on HEK293f cells with rat NgR, AP-Nogo66 40 nM, Alexa Fluor-labelled anti-alkaline phosphatase antibody
Experimental: as §1

binding result [1] | binding result [2] | binding result [3] | Binder
binds |  |  | human recombinant NgR/Fc chimera (R&D Systems, Cat. Number 1208-NG) (Fc fusion, UniProt Q9BZR6 27-447, looked up, range 1-447; Bought from R&D Systems; also called hNgR-Fc; human NgR-Fc; not shown: human Fc fragment) CPGACVCYNEPKVTTSCPQQGLQAVPVGIPAASQRIFLHGNRISHVPAASFRACRNLTILWLHSNVLARIDAAAFTGLALLEQLDLSDNAQLRSVDPATFHGLGRLHTLHLDRCGLQELGPGLFRGLAALQYLYLQDNALQALPDDTFRDLGNLTHLFLHGNRISSVPERAFRGLHSLDRLLLHQNRVAHVHPHAFRDLGRLMTLYLFANNLSALPTEALAPLRALQYLRLNDNPWVCDCRARPLWAWLQKFRGSSSEVPCSLPQRLAGRDLKRLAANDLQGCAVATGPYHPIWTGRATDEEPLGLPKCCQPDAADKASVLEPGRPASAGNALKGRVPPGDSPPGNGSGPRHINDSPFGTLPGSAEPPLTAVRPEGSEPPGFPTSGPRRRPGCSRKNRTRSHCRLGQAGSGGGGTGDSEGS
 | binds | binds | AP-Nogo66 (ligand, Nogo66 cloned into pAPTag5, made in HEK293 cells; also called Nogo66 fused to an alkaline phosphatase tag) DAAQPARRARRTYEAYVRSSGIIPVEEENPDFWNREAAEALGAAKKLQPAQTAAKNLIIFLGDGMGVSTVTAARILKGQKKDKLGPEIPLAMDRFPYVALSKTYNVDKHVPDSGATATAYLCGVKGNFQTIGLSAAARFNQCNTTRGNEVISVMNRAKKAGKSVGVVTTTRVQHASPAGTYAHTVNRNWYSDADVPASARQEGCQDIATQLISNMDIDVILGGGRKYMFRMGTPDPEYPDDYSQGGTRLDGKNLVQEWLAKRQGARYVWNRTELMQASLDPSVTHLMGLFEPGDMKYEIHRDSTLDPSLMEMTEAALRLLSRNPRGFFLFVEGGRIDHGHHESRAYRALTETIMFDDAIERAGQLTSEEDTLSLVTADHSHVFSFGGYPLRGSSIFGLAPGKARDRKAYTVLLYGNGPGYVLKDGARPDVTESESGSPEYRQQSAVPLDEETHAGEDVAVFARGPQAHLVHGVQEQTFIAHVMAFAACLEPYTACDLAPPAGTTDAAHPGYLEEALSLERIYKGVIQAIQKSDEGHPFRAYLESEVAISEELVQKYSNSALGHVNCTIKELRRLFLVDDLVDSLKSLEGPEQKLISEEDLNSAVDHHHHHH
